Results from patent US20220267427A1.

Experiments:
[1] = target: fCK18 in apoptosis-induced HepG2 cell culture supernatant (human) (UniProt P05783); assay: commercial fCK18 kit ELISA with M30 conjugate; fCK18 0.74 ng/mL
[2] = target: fCK18 in apoptosis-induced HepG2 cell culture supernatant (human) (UniProt P05783); assay: commercial fCK18 kit ELISA with M30 conjugate; fCK18 0.28 ng/mL
[3] = target: fCK18 in apoptosis-induced HepG2 cell culture supernatant (human) (UniProt P05783); assay: commercial fCK18 kit ELISA with M30 conjugate; fCK18 2.23 ng/mL
[4] = target: fCK18 in apoptosis-induced HepG2 cell culture supernatant (human) (UniProt P05783); assay: commercial fCK18 kit ELISA with M30 conjugate
[5] = target: fCK18 in apoptosis-induced HepG2 cell culture supernatant (human) (UniProt P05783); assay: commercial fCK18 kit ELISA with M30 conjugate; fCK18 60.73 ng/mL
[6] = target: fCK18 in apoptosis-induced HepG2 cell culture supernatant (human) (UniProt P05783); assay: commercial fCK18 kit ELISA with M30 conjugate; fCK18 182.28 ng/mL
[7] = target: fCK18 in apoptosis-induced HepG2 cell culture supernatant (human) (UniProt P05783); assay: commercial fCK18 kit ELISA with M30 conjugate; fCK18 0.09 ng/mL
[8] = target: fCK18 in apoptosis-induced HepG2 cell culture supernatant (human) (UniProt P05783); assay: commercial fCK18 kit ELISA with M30 conjugate; fCK18 20.27 ng/mL
[9] = target: fCK18 in apoptosis-induced HepG2 cell culture supernatant (human) (UniProt P05783); assay: commercial fCK18 kit ELISA with M30 conjugate; fCK18 6.79 ng/mL

fCK18 in apoptosis-induced HepG2 cell culture supernatant (human), sequence (P05783 239-397): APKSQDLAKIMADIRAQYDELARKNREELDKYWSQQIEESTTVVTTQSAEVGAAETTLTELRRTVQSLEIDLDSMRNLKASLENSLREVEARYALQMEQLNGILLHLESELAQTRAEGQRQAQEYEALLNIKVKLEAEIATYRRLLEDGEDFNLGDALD

S/N ratio [1]: 1.5
S/N ratio [2]: 1.2
S/N ratio [3]: 2.4
fCK18 concentration detectable (S/N ratio of 2 or more) [4]: > 2.23 ng/mL
S/N ratio [5]: 37.5
S/N ratio [6]: 48.3
S/N ratio [7]: 1.1
S/N ratio [8]: 12.8
S/N ratio [9]: 5.1
Substance: M30 antibody
